Results taken from patent US20240270813A1 (UNIVERSITY OF PITTSBURGH OF THE COMMONWEALTH SYSTEM OF …, published 2024).
Several values for one entry are separate records, joined by “and”; a condition that tells them apart may be missing. Identical values can stand only once. Like-named read-outs stand apart in the source and are kept apart here.

What was measured:
Test in all cases: cell-based or functional assay
[1] = target: T1, HA-1 “H” peptide (…) presented by HLA-A*02:01 on antigen presenting cells (human)
[2] = target: T1, HA-1 “H” peptide (…) presented by …; remark: listed apart in the source
[3] = target: T1, HA-1 “H” peptide (…) presented by …; remark: listed apart in the source

EC50 for CD69 Expression [1] | EC50 values for CD69 Expression [2] | Binder | also measured
< 10 nM and < 10 ng/mL |  | TCR D (TCR, V domains shown) V domain 1: AQSVAQPEDQVNVAEGNPLTVKCTYSVSGNPYLFWYVQYPNRGLQFLLKYITGDNLVKGSYGFEAEFNKSQTSFHLKKPSALVSDSALYFCAVRAPTSGTYKYIFGTGTRLKVLA V domain 2: DTGVSQDPRHKITKRGQNVTFRCDPISEHNRLYWYRQTLGQGPEFLTYFQNEAQLEKSRLLSDRFSAERPKGSFSTLEIQRTEQGDSAMYLCASSLVSGNEQFFGPGTRLTVLE | 
 | 9.2 ng/mL | TCR AI (TCR, V domains shown) V domain 1: AQSVAQPEDQVNVAEGNPLTVKCTYSVSGNPYLFWYVQYPNRGLQFLLKYITGDNLVKGSYGFEAEFNKSQTSFHLKKPSALVSDSALYFCAVREPTSGTYKYIFGTGTRLKVLA V domain 2: DTGVSQDPRHKITKRGQNVTFRCDPISEHNRLYWYRQTLGQGPEFLTYFQNEAQLEKSRLLSDRFSAERPKGSFSTLEIQRTEQGDSAMYLCASSLVNGNEQFFGPGTRLTVLE | 
 |  | TCR AD (TCR, V domains shown) V domain 1: SQQGEEDPQALSIQEGENATMNCSYKTSINNLQWYRQNSGRGLVHLILIRSNEREKHSGRLRVTLDTSKKSSSLLITASRAADTASYFCATVPTDYMYSGGGADGLTFGKGTHLIIQP V domain 2: DTGVSQNPRHKITKRGQNVTFRCDPISEHNRLYWYRQTLGQGPEFLTYFQNEAQLEKSRLLSDRFSAERPKGSFSTLEIQRTEQGDSAMYLCASSLVRLDGYTFGSGTRLTVVE | EC50 values for CD69 Expression [3]: 4.9 ng/mL
 | 2.77 ng/mL | TCR AE (TCR, V domains shown) V domain 1: AQSVAQPEDQVNVAEGNPLTVKCTYSVSGNPYLFWYVQYPNRGLQFLLKYITGDNLVKGSYGFEAEFNKSQTSFHLKKPSALVSDSALYFCAVRCPTSGTYKYIFGTGTRLKVLA V domain 2: DTGVSQDPRHKITKRGQNVTFRCDPISEHNRLYWYRQTLGQGPEFLTYFQNEAQLEKSRLLSDRFSAERPKGSFSTLEIQRTEQGDSAMYLCASSLVSGNEQFFGPGTRLTVLE | 
 | 3.4 ng/mL | TCR AH (TCR, V domains shown) V domain 1: AQSVAQPEDQVNVAEGNPLTVKCTYSVSGNPYLFWYVQYPNRGLQFLLKYITGDNLVKGSYGFEAEFNKSQTSFHLKKPSALVSDSALYFCAVRVPTSGTYKYIFGTGTRLKVLA V domain 2: DTGVSQDPRHKITKRGQNVTFRCDPISEHNRLYWYRQTLGQGPEFLTYFQNEAQLEKSRLLSDRFSAERPKGSFSTLEIQRTEQGDSAMYLCASSLVSGNEQFFGPGTRLTVLE | 
< 10 ng/mL and < 10 nM |  | TCR E (TCR, V domains shown) V domain 1: AQSVAQPEDQVNVAEGNPLTVKCTYSVSGNPYLFWYVQYPNRGLQFLLKYITGDNLVKGSYGFEAEFNKSQTSFHLKKPSALVSDSALYFCAVRGPTSGTYKYIFGTGTRLKVLA V domain 2: DTGVSQDPRHKITKRGQNVTFRCDPISEHNRLYWYRQTLGQGPEFLTYFQNEAQLEKSRLLSDRFSAERPKGSFSTLEIQRTEQGDSAMYLCASSLVSGNEQFFGPGTRLTVLE | 
< 10 ng/mL and < 10 nM |  | TCR C (TCR, V domains shown) V domain 1: KQEVTQIPAALSVPEGENLVLNCSFTDSAIYNLQWFRQDPGKGLTSLLLIQSSQREQTSGRLNASLDKSSGRSTLYIAASQPGDSATYLCAVRPRTSGTYKYIFGTGTRLKVLA V domain 2: DTGVSQDPRHKITKRGQNVTFRCDPISEHNRLYWYRQTLGQGPEFLTYFQNEAQLEKSRLLSDRFSAERPKGSFSTLEIQRTEQGDSAMYLCASTELSGNTIYFGEGSWLTVVE | 
 | 2.49 ng/mL | TCR AF (TCR, V domains shown) V domain 1: AQSVAQPEDQVNVAEGNPLTVKCTYSVSGNPYLFWYVQYPNRGLQFLLKYITGDNLVKGSYGFEAEFNKSQTSFHLKKPSALVSDSALYFCAVRSPTSGTYKYIFGTGTRLKVLA V domain 2: DTGVSQDPRHKITKRGQNVTFRCDPISEHNRLYWYRQTLGQGPEFLTYFQNEAQLEKSRLLSDRFSAERPKGSFSTLEIQRTEQGDSAMYLCASSLVSGNEQFFGPGTRLTVLE | 
 | 2.27 ng/mL | TCR AG (TCR, V domains shown) V domain 1: AQSVAQPEDQVNVAEGNPLTVKCTYSVSGNPYLFWYVQYPNRGLQFLLKYITGDNLVKGSYGFEAEFNKSQTSFHLKKPSALVSDSALYFCAVRTPTSGTYKYIFGTGTRLKVLA V domain 2: DTGVSQDPRHKITKRGQNVTFRCDPISEHNRLYWYRQTLGQGPEFLTYFQNEAQLEKSRLLSDRFSAERPKGSFSTLEIQRTEQGDSAMYLCASSLVSGNEQFFGPGTRLTVLE | 
< 10 ng/mL and < 10 nM |  | TCR A (TCR, V domains shown) V domain 1: AQSVAQPEDQVNVAEGNPLTVKCTYSVSGNPYLFWYVQYPNRGLQFLLKYITGDNLVKGSYGFEAEFNKSQTSFHLKKPSALVSDSALYFCAVRGGSYKYIFGTGTRLKVLA V domain 2: DTGVSQDPRHKITKRGQNVTFRCDPISEHNRLYWYRQTLGQGPEFLTYFQNEAQLEKSRLLSDRFSAERPKGSFSTLEIQRTEQGDSAMYLCASTPGTVYNEQFFGPGTRLTVLE | 
< 10 ng/mL and < 10 nM |  | TCR F (TCR, V domains shown) V domain 1: GENVEQHPSTLSVQEGDSAVIKCTYSDSASNYFPWYKQELGKRPQLIIDIRSNVGEKKDQRIAVTLNKTAKHFSLHITETQPEDSAVYFCAAHLTGGGNKLTFGTGTQLKVEL V domain 2: DTGVSQDPRHKITKRGQNVTFRCDPISEHNRLYWYRQTLGQGPEFLTYFQNEAQLEKSRLLSDRFSAERPKGSFSTLEIQRTEQGDSAMYLCASSSRAGGETQYFGPGTRLLVLE | 
 |  | TCR AJ (TCR, V domains shown) V domain 1: EDQVTQSPEALRLQEGESSSLNCSYTVSGLRGLFWYRQDPGKGPEFLFTLYSAGEEKEKERLKATLTKKESFLHITAPKPEDSATYLCAVHSNAGGTSYGKLTFGQGTILTVHP V domain 2: DAGVTQSPTHLIKTRGQHVTLRCSPISGHKSVSWYQQVLGQGPQFIFQYYEKEERGRGNFPDRFSARQFPNYSSELNVNALLLGDSALYLCASSADRGSPLHFGNGTRLTVTE | EC50 values for CD69 Expression [3]: 5 ng/mL
